PMC5020537, “A lack of peptide binding and decreased thermostability suggests that the CASKIN2 scaffolding protein SH3 domain may be vestigial” (BMC Structural Biology, 2016)
“And” between values parts separate entries of the source, which are not always exact repeats. Equal entries are not always repeated.

What was measured:
[1] = biological target: T1, CASKIN2 SH3 domain SH3-6x mutant (K290Y, H296E, A300E, R319W, Y336L, I341F) (human, UniProt Q8WXE0 284-348, K290Y | H296E | A300E | R319W | Y336L | I341F); assay: other fluorescence titration; peptide titrated into 1 μM SH3 domain; 10 mM Tris-HCl, pH 7.5, 150 mM NaCl, 0.05 % sodium azide; intrinsic tryptophan fluorescence, excitation 280 nm, emission 340 nm; fitted to a 1:1 protein to peptide complex; details: both partners purified
T1 construct: Made by Quikchange from the wild type construct; PDB 2KE9 is the wild type parent; also called 6x CASKIN-SH3 domain mutant
T1 sequence (Q8WXE0 284-348 K290Y/H296E/A300E/R319W/Y336L/I341F): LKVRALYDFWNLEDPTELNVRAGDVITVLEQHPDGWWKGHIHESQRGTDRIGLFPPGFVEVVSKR

[2] = biological target: T2, human CASKIN2 SH3 domain (aa. 284-348), wild type (human, UniProt Q8WXE0 284-348); assay: as above; details: both partners purified
T2 construct: CASKIN2, human, SH3 domain, residues 284-348, UniProt Q8WXE0; Cloned into BamHI/XhoI of pGEX4T2; Isotopically labelled (15N and/or 13C) for NMR; also called wild type CASKIN2 SH3 domain; WT
T2 sequence (Q8WXE0 284-348): as the sequence (Q8WXE0 284-348 K290Y/H296E/A300E/R319W/Y336L/I341F) above, with Y7K, E13H, E17A, W36R, L53Y, F58I counted along it

Kd [1]: 460 nM and 220 nM
Kd [2]: 39000 ± 6000 nM
B1: UBPY peptide YTPMVRENKPP (peptide)
peptide: YTPMVRENKPP
notes: peptide derived from the protein UBPY, corresponding to the UBPY ligand in the STAM2 SH3 domain structure PDB 1UJ0; contains an RxxKP motif; also called Class-III UBPY peptide; STAM2 ligand; source: synthetic peptide (Canpeptide, Montreal; > 90 % purity)
